B1: dBBDu183H T100bY / dBBDu072L (antibody, name in Kabat numbering, V domains shown)
VH: QVQLVESGGGLVQPGRSLRLSCAASGFTFSNAWMHWVRQAPGKGLEWVAQIKDKGNAYAAYYAPSVKGRFTISRDDSKNSIYLQMNSLKTEDTAVYYCHYVHYASASYVLPAFGVDAWGQGTTVTVSS
VL: DIVMTQSPLSLPVTPGEPASISCQASQELVHMNRNTYLHWYQQKPGQAPRLLIYKVSNRFPGVPDRFSGSGSGTDFTLKISRVEAEDVGVYYCAQGTSVPFTFGQGTKLEIK
B2: dBBDu183H P100eF / dBBDu072L (antibody, name in Kabat numbering, V domains shown)
VH: B1 VH with Y108T, P111F
VL: B1 VL
B3: dBBDu183H A98W / dBBDu072L (antibody, name in Kabat numbering, V domains shown)
VH: B1 VH with A104W, Y108T
VL: B1 VL
B4: dBBDu183H V100iY / dBBDu072L (antibody, name in Kabat numbering, V domains shown)
VH: B1 VH with Y108T, V115Y
VL: B1 VL
B5: dBBDu183H A100fW / dBBDu072L (antibody, name in Kabat numbering, V domains shown)
VH: B1 VH with Y108T, A112W
VL: B1 VL
B6: dBBDu183H A102W / dBBDu072L (antibody, name in Kabat numbering, V domains shown)
VH: B1 VH with Y108T, A117W
VL: B1 VL
B7: dBBDu183H D101F / dBBDu072L (antibody, name in Kabat numbering, V domains shown)
VH: B1 VH with Y108T, D116F
VL: B1 VL
B8: dBBDu183H G100hY / dBBDu072L (antibody, name in Kabat numbering, V domains shown)
VH: B1 VH with Y108T, G114Y
VL: B1 VL
B9: dBBDu183H V95Y / dBBDu072L (antibody, name in Kabat numbering, V domains shown)
VH: B1 VH with V101Y, Y108T
VL: B1 VL
B10: dBBDu183H V100iF / dBBDu072L (antibody, name in Kabat numbering, V domains shown)
VH: B1 VH with Y108T, V115F
VL: B1 VL
B11: dBBDu183H A100fY / dBBDu072L (antibody, name in Kabat numbering, V domains shown)
VH: B1 VH with Y108T, A112Y
VL: B1 VL
B12: dBBDu183H D101Y / dBBDu072L (antibody, name in Kabat numbering, V domains shown)
VH: B1 VH with Y108T, D116Y
VL: B1 VL
B13: dBBDu183H L100dY / dBBDu072L (antibody, name in Kabat numbering, V domains shown)
VH: B1 VH with Y108T, L110Y
VL: B1 VL
B14: dBBDu183H L100dF / dBBDu072L (antibody, name in Kabat numbering, V domains shown)
VH: B1 VH with Y108T, L110F
VL: B1 VL
B15: dBBDu183H T100bW / dBBDu072L (antibody, name in Kabat numbering, V domains shown)
VH: B1 VH with Y108W
VL: B1 VL
B16: dBBDu183H H93W / dBBDu072L (antibody, name in Kabat numbering, V domains shown)
VH: B1 VH with H99W, Y108T
VL: B1 VL
B17: dBBDu183H H93Y / dBBDu072L (antibody, name in Kabat numbering, V domains shown)
VH: B1 VH with H99Y, Y108T
VL: B1 VL
B18: dBBDu183H P100eY / dBBDu072L (antibody, name in Kabat numbering, V domains shown)
VH: B1 VH with Y108T, P111Y
VL: B1 VL
B19: dBBDu183H D101W / dBBDu072L (antibody, name in Kabat numbering, V domains shown)
VH: B1 VH with Y108T, D116W
VL: B1 VL
B20: dBBDu183H V100cF / dBBDu072L (antibody, name in Kabat numbering, V domains shown)
VH: B1 VH with Y108T, V109F
VL: B1 VL
B21: dBBDu183H Y94W / dBBDu072L (antibody, name in Kabat numbering, V domains shown)
VH: B1 VH with Y100W, Y108T
VL: B1 VL
B22: dBBDu183H S100aY / dBBDu072L (antibody, name in Kabat numbering, V domains shown)
VH: B1 VH with S107Y, Y108T
VL: B1 VL
B23: dBBDu183H A100fF / dBBDu072L (antibody, name in Kabat numbering, V domains shown)
VH: B1 VH with Y108T, A112F
VL: B1 VL
B24: dBBDu183H A100Y / dBBDu072L (antibody, name in Kabat numbering, V domains shown)
VH: B1 VH with A106Y, Y108T
VL: B1 VL
B25: dBBDu183H P100eW / dBBDu072L (antibody, name in Kabat numbering, V domains shown)
VH: B1 VH with Y108T, P111W
VL: B1 VL
B26: dBBDu183H A100W / dBBDu072L (antibody, name in Kabat numbering, V domains shown)
VH: B1 VH with A106W, Y108T
VL: B1 VL
B27: dBBDu183H A102Y / dBBDu072L (antibody, name in Kabat numbering, V domains shown)
VH: B1 VH with Y108T, A117Y
VL: B1 VL
B28: dBBDu183H A98Y / dBBDu072L (antibody, name in Kabat numbering, V domains shown)
VH: B1 VH with A104Y, Y108T
VL: B1 VL
B29: dBBDu183H S99W / dBBDu072L (antibody, name in Kabat numbering, V domains shown)
VH: B1 VH with S105W, Y108T
VL: B1 VL
B30: dBBDu183H A102F / dBBDu072L (antibody, name in Kabat numbering, V domains shown)
VH: B1 VH with Y108T, A117F
VL: B1 VL
B31: dBBDu183H G100hW / dBBDu072L (antibody, name in Kabat numbering, V domains shown)
VH: B1 VH with Y108T, G114W
VL: B1 VL
B32: dBBDu183H V63Y / dBBDu072L (antibody, name in Kabat numbering, V domains shown)
VH: B1 VH with V66Y, Y108T
VL: B1 VL
B33: dBBDu183H S100aW / dBBDu072L (antibody, name in Kabat numbering, V domains shown)
VH: B1 VH with S107W, Y108T
VL: B1 VL
B34: dBBDu183H G100hF / dBBDu072L (antibody, name in Kabat numbering, V domains shown)
VH: B1 VH with Y108T, G114F
VL: B1 VL
B35: dBBDu183H V95W / dBBDu072L (antibody, name in Kabat numbering, V domains shown)
VH: B1 VH with V101W, Y108T
VL: B1 VL
B36: dBBDu183H V100iW / dBBDu072L (antibody, name in Kabat numbering, V domains shown)
VH: B1 VH with Y108T, V115W
VL: B1 VL
B37: H183/L072 VH F29A (antibody, name in Kabat numbering, V domains shown)
VH: B1 VH with F29A, Y108T
VL: B1 VL
B38: H183/L072 VH M34A (antibody, name in Kabat numbering, V domains shown)
VH: B1 VH with M34A, Y108T
VL: B1 VL
B39: H183/L072 VH H35A (antibody, name in Kabat numbering, V domains shown)
VH: B1 VH with H35A, Y108T
VL: B1 VL
B40: H183/L072 VH W33A (antibody, name in Kabat numbering, V domains shown)
VH: B1 VH with W33A, Y108T
VL: B1 VL
B41: H183/L072 VH Q50A (antibody, name in Kabat numbering, V domains shown)
VH: B1 VH with Q50A, Y108T
VL: B1 VL
B42: H183/L072 VH D52aA (antibody, name in Kabat numbering, V domains shown)
VH: B1 VH with D53A, Y108T
VL: B1 VL
B43: H183/L072 VH N53A (antibody, name in Kabat numbering, V domains shown)
VH: B1 VH with N56A, Y108T
VL: B1 VL
B44: H183/L072 VH K52A (antibody, name in Kabat numbering, V domains shown)
VH: B1 VH with K52A, Y108T
VL: B1 VL

Changes are numbered by the printed parent chain. Names may count otherwise.

The values below come from patent US20210388087A1.

One assay concerns the target Human CD137 ECD (human). Nature of the assay: SPR, vs parent H183/L072. For orientation: Surface plasmon resonance follows binding to a sensor surface in real time, without labels.
For the molecule B1, the fold change of affinity is 0 fold.
The same measure, in the same setting: with B2 the figure was 0 fold; with B3, 0 fold.
Same read-out and setting: the result for B4 reads 0 fold.
On the same count and under the same terms, the result for B5 reads 0 fold; that for B6, 0 fold.
B7: the fold change of affinity amounted to 0 fold.
The same measure, in the same setting: the result for B8 reads 0 fold.
On the same count and under the same terms, with B9 the figure was 0 fold.
Turning to B10, the fold change of affinity is 0 fold.
On to B11, for which the fold change of affinity came out at 0 fold.
The same measure, in the same setting: with B12 the figure was 0 fold; with B13, 0 fold; with B14, 0 fold.
The same measure, in the same setting: with B15 the figure was 0 fold; with B16, 0 fold; with B17, 0 fold.
As for B18, the fold change of affinity was 0 fold.
Still for that read-out and setting: the result for B19 reads 0 fold; that for B20, 0 fold; that for B21, 0 fold.
Same read-out and setting: the result for B22 reads 0 fold; that for B23, 0 fold.
Regarding B24, the fold change of affinity was found to be 0 fold.
Regarding B25, the fold change of affinity worked out at 0 fold.
On the same count and under the same terms, with B26 the figure was 0 fold; with B27, 0 fold; with B28, 0 fold.
For the molecule B29, the fold change of affinity stood at 0 fold.
Still for that read-out and setting: the result for B30 reads 0 fold; that for B31, 0 fold.
On the same count and under the same terms, with B32 the figure was 0 fold; with B33, 0 fold.
Turning to B34, the fold change of affinity was 0 fold.
The same measure, in the same setting: the result for B35 reads 0 fold.
Still for that read-out and setting: with B36 the figure was 0 fold.

The target of the next assay is Human CD137 ECD (human). Kind of assay: single mutant vs template dBBDu183H.
Chain of Human CD137 ECD (human) (chain, as listed by the source limits assumed): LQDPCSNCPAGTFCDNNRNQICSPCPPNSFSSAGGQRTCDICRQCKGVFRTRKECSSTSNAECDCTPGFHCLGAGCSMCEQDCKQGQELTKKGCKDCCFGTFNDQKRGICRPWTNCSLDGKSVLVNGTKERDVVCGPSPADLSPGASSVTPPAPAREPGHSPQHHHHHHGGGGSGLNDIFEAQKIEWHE
For the molecule B37, the fold change of affinity was 0 fold.
Still for that read-out and setting: with B38 the figure was 0 fold; with B39, 0 fold.
Still for that read-out and setting: the result for B40 reads 0 fold; that for B41, 0 fold; that for B42, 0 fold.
On the same count and under the same terms, the result for B43 reads 0 fold; that for B44, 0 fold.
